The data set has as its system Bacillus subtilis. Kind of data set: cleaved RNA product abundance (RNA/gDNA barcode ratio) relative to median wild-type variant (ratio to wild type); higher = more accumulation of the downstream cleavage product. Particulars: cleavage site: cggR-gapA (positions -7 to +36 mutated). An outline of the steps: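 Reporter mRNAs based on truncated aprE or tetM carried barcoded, mutagenized RNase Y cleavage-site windows built from oligos with a 9% error rate and were integrated into the B. subtilis chromosome. Cultures grew in LB at 37°C from OD600 0.0003 to 0.3. Cleaved RNA was gel-selected, reverse transcribed and barcode-sequenced together with genomic DNA barcodes, and UMIs were collapsed. Cleaved product abundance is the per-construct ratio of RNA to gDNA barcodes, scaled to the median of constructs carrying the unmutated site.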

The mark [1] stands for this setting: experiment (reporter, strain, medium): exp 6: tetM reporter, strain 168.
[2] abbreviates: experiment (reporter, strain, medium): exp 2b: truncated aprE reporter, strain BJT200.
Where [3] appears, read: experiment (reporter, strain, medium): exp 4a: truncated aprE reporter, strain BJT201 with 2% xylose (RNase J1 expressed).

Turning to “ACAGACGAAGGAGCCGCAAAGAAGTTATTAAGGGATGAATAATCCCTTAATAAAAATATCTCTCACTTATTTAAA”, under setting [1], the “cleaved RNA product abundance” value is 0.227.
Regarding “ACAGACGAAGGAGCCGCAAAGAAGTTATTAAGGGATGAATAATCCCTTAATATAAACATCTCTCACTTATTTAAA”, the “cleaved RNA product abundance” value under setting [2] was determined as 0.304 and the “cleaved RNA product abundance” value under setting [3] was 0.216.
With “ACAGACGAAGGAGCCGCAAAGAAGTTATTAAGGGATGAATAATCCCTTAATATAAATAACTCTCACTTATTTAAA”, under setting [3], the “cleaved RNA product abundance” value was 0.433.
With “ACAGACGAAGGAGCCGCAAAGAAGTTATTAAGGGATGAATAATCCCTTAATATAAATATCTCTCACTTATTTAAA”, the “cleaved RNA product abundance” value came to 0.782 under setting [2], 0.595 under setting [3] and 0.623 under setting [1].
For the sequence “ACAGACGAAGGAGCCGCAAAGAAGTTATTAAGGGATGAATAATCCCTTAATATAAATATTTCTCACTTATTTAAA”, the “cleaved RNA product abundance” value under setting [3] amounted to 0.494.
Same read-out and setting: then “ACAGACGAAGGAGCCGCAAAGAAGTTATTAAGGGATGAATAATCCCTTAATATACATATCTCTCACTTATTTAAA”, with 0.232; and “ACAGACGAAGGAGCCGCAAAGAAGTTATTAAGGGATGAATAATCCCTTAATATAGATATCTCTCACTTATTTAAA”, with 0.866; and “ACAGACGAAGGAGCCGCAAAGAAGTTATTAAGGGATGAATAATCCCTTAATATATATATCTCTCACTTATTTAAA”, with 0.895.
Same read-out and setting: next, “ACAGACGAAGGAGCCGCAAAGAAGTTATTAAGGGATGAATAATCCCTTATTATAAATATCTCTCACTTATTTAAA”: 0.813; “ACAGACGAAGGAGCCGCAAAGAAGTTATTAAGGGATGAATAATCCCTTCAATATAAATATCTCTCACTTATTTAA”: 0.904.
For “ACAGACGAAGGAGCCGCAAAGAAGTTATTAAGGGATGAATAATCCCTTTATATAAATATCTCTCACTTATTTAAA”, the “cleaved RNA product abundance” value under setting [2] is 1.14 and the “cleaved RNA product abundance” value under setting [3] worked out at 0.977.
Turning to “ACAGACGAAGGAGCCGCAAAGAAGTTATTAAGGGATGAATAATCCGTAAATATAAATATCTCTCACTTATTTAAA”, the “cleaved RNA product abundance” value under setting [3] worked out at 0.28.
With “ACAGACGAAGGAGCCGCAAAGAAGTTATTAAGGGATGAATAATCCGTCAAAATAAATATCTCTCACTTATTTAAA”, the “cleaved RNA product abundance” value under setting [3] was determined as 0.262.
Regarding “ACAGACGAAGGAGCCGCAAAGAAGTTATTAAGGGATGAATAATCCGTCAATAAAAATATCTCTCACTTATTTAAA”, the “cleaved RNA product abundance” value under setting [3] was determined as 0.173.
Consider “ACAGACGAAGGAGCCGCAAAGAAGTTATTAAGGGATGAATAATCCGTCAATATAAATATCTCTCACTTATTTAAA”, for which the “cleaved RNA product abundance” value is 0.167 under setting [2], 0.234 under setting [3] and 0.247 under setting [1].
In the case of “ACAGACGAAGGAGCCGCAAAGAAGTTATTAAGGGATGAATAATCCGTCAATATAATTATCTCTCACTTATTTAAA”, under setting [3], the “cleaved RNA product abundance” value was 0.119.
As to “ACAGACGAAGGAGCCGCAAAGAAGTTATTAAGGGATGAATAATCCGTCAATATAGATATCTCTCACTTATTTAAA”, the “cleaved RNA product abundance” value under setting [3] worked out at 0.314.
For “ACAGACGAAGGAGCCGCAAAGAAGTTATTAAGGGATGAATAATCCGTCAATATCAATATCTCTCACTTATTTAAA”, the “cleaved RNA product abundance” value under setting [3] came to 0.15.
“ACAGACGAAGGAGCCGCAAAGAAGTTATTAAGGGATGAATAATCCGTCATTATAAATATCTCTCACTTATTTAAA”: under setting [2], the “cleaved RNA product abundance” value came to 0.136.
Consider “ACAGACGAAGGAGCCGCAAAGAAGTTATTAAGGGATGAATAATCCGTCGATATAAATATCTCTCACTTATTTAAA”, for which the “cleaved RNA product abundance” value amounted to 0.0608 under setting [2] and 0.106 under setting [3].
Turning to “ACAGACGAAGGAGCCGCAAAGAAGTTATTAAGGGATGAATAATCCTACAATATAAATATCTCTCACTTATTTAAA”, under setting [3], the “cleaved RNA product abundance” value worked out at 0.295.
Take “ACAGACGAAGGAGCCGCAAAGAAGTTATTAAGGGATGAATAATCCTCAATATAAATATCTCTCACTTATTTAAAG”: the “cleaved RNA product abundance” value amounted to 0.205 under setting [2] and 0.309 under setting [3].
Take “ACAGACGAAGGAGCCGCAAAGAAGTTATTAAGGGATGAATAATCCTCCAATATAAATATCTCTCACTTATTTAAA”: under setting [2], the “cleaved RNA product abundance” value worked out at 0.127.

The values above are taken from the supplement of paper PMC11780869.
